Results: paper PMC2141644 (The Journal of Cell Biology, 1997)

Target: F-actin (actin filaments) from rabbit skeletal muscle (rabbit, UniProt P68135 1-377)
Experiment: co-sedimentation

B1: GST-dem (GST fused to abLIM amino acids 585-778) (domain or fragment)
chain: RSSGREEDDEELLRRRQLQEEQLMKLNSGLGQLILKEEMEKESRERSSLLASRYDSPINSASHIPSSKTASLPGYGRNGLHRPVSTDFAQYNSYGDVSGGVRDYQTLPDGHMPAMRMDRGVSMPNMLEPKIFPYEMLMVTNRGRNKILREVDRTRLERHLAPEVFREIFGMSIQEFDRLPLWRRNDMKKKAKLF
Kd: ~2600 nM
stoichiometry N: ~1.1 actin molecules per GST–abLIM monomer
